Assay results: article PMC11574045, “A cofactor-induced repressive type of transcription factor condensation can be induced by synthetic peptides to suppress tumorigenesis” (The EMBO Journal, 2024)

B1: ASCL4 (protein, UniProt Q6XD76 1-172, looked up)
Achaete-scute homolog 4: METRKPAERLALPYSLRTAPLGVPGTLPGLPRRDPLRVALRLDAACWEWARSGCARGWQYLPVPLDSAFEPAFLRKRNERERQRVRCVNEGYARLRDHLPRELADKRLSKVETLRAAIDYIKHLQELLERQAWGLEGAAGAVPQRRAECNSDGESKASSAPSPSSEPEEGGS
B2: MXD4 (protein, UniProt Q14582 1-209, looked up)
Max dimerization protein 4: MELNSLLILLEAAEYLERRDREAEHGYASVLPFDGDFAREKTKAAGLVRKAPNNRSSHNELEKHRRAKLRLYLEQLKQLVPLGPDSTRHTTLSLLKRAKVHIKKLEEQDRRALSIKEQLQQEHRFLKRRLEQLSVQSVERVRTDSTGSAVSTDDSEQEVDIEGMEFGPGELDSVGSSSDADDHYSLQSGTGGDSGFGPHCRRLGRPALS
B3: MESP1 (protein, UniProt Q9BRJ9 1-268, looked up)
Mesoderm posterior protein 1: MAQPLCPPLSESWMLSAAWGPTRRPPPSDKDCGRSLVSSPDSWGSTPADSPVASPARPGTLRDPRAPSVGRRGARSSRLGSGQRQSASEREKLRMRTLARALHELRRFLPPSVAPAGQSLTKIETLRLAIRYIGHLSAVLGLSEESLQRRCRQRGDAGSPRGCPLCPDDCPAQMQTRTQAEGQGQGRGLGLVSAVRAGASWGSPPACPGARAAPEPRDPPALFAEAACPEGQAMEPSPPSPLLPGDVLALLETWMPLSPLEWLPEEPK
B4: MYCBP (protein, UniProt Q99417 2-103, looked up)
c-Myc-binding protein: AHYKAADSKREQFRRYLEKSGVLDTLTKVLVALYEEPEKPNSALDFLKHHLGAATPENPEIELLRLELAEMKEKYEAIVEENKKLKAKLAQYEPPQEEKRAE
B5: MLR2 (protein, UniProt Q96JN0 1-433, looked up)
Ligand-dependent corepressor: MQRMIQQFAAEYTSKNSSTQDPSQPNSTKNQSLPKASPVTTSPTAATTQNPVLSKLLMADQDSPLDLTVRKSQSEPSEQDGVLDLSTKKSPCAGSTSLSHSPGCSSTQGNGRPGRPSQYRPDGLRSGDGVPPRSLQDGTREGFGHSTSLKVPLARSLQISEELLSRNQLSTAASLGPSGLQNHGQHLILSREASWAKPHYEFNLSRMKFRGNGALSNISDLPFLAENSAFPKMALQAKQDGKKDVSHSSPVDLKIPQVRGMDLSWESRTGDQYSYSSLVMGSQTESALSKKLRAILPKQSRKSMLDAGPDSWGSDAEQSTSGQPYPTSDQEGDPGSKQPRKKRGRYRQYNSEILEEAISVVMSGKMSVSKAQSIYGIPHSTLEYKVKERLGTLKNPPKKKMKLMRSEGPDVSVKIELDPQGEAAQSANESKNE
B6: MEIS3 (protein, UniProt Q99687 1-375, looked up)
Homeobox protein Meis3: MARRYDELPHYPGIVDGPAALASFPETVPAVPGPYGPHRPPQPLPPGLDSDGLKREKDEIYGHPLFPLLALVFEKCELATCSPRDGAGAGLGTPPGGDVCSSDSFNEDIAAFAKQVRSERPLFSSNPELDNLMIQAIQVLRFHLLELEKVHDLCDNFCHRYITCLKGKMPIDLVIEDRDGGCREDFEDYPASCPSLPDQNNMWIRDHEDSGSVHLGTPGPSSGGLASQSGDNSSDQGDGLDTSVASPSSGGEDEDLDQERRRNKKRGIFPKVATNIMRAWLFQHLSHPYPSEEQKKQLAQDTGLTILQVNNWFINARRRIVQPMIDQSNRTGQGAAFSPEGQPIGGYTETQPHVAVRPPGSVGMSLNLEGEWHYL
B7: MSGN1 (protein, UniProt A6NI15 1-193, looked up)
Mesogenin-1: MDNLRETFLSLEDGLGSSDSPGLLSSWDWKDRAGPFELNQASPSQSLSPAPSLESYSSSPCPAVAGLPCEHGGASSGGSEGCSVGGASGLVEVDYNMLAFQPTHLQGGGGPKAQKGTKVRMSVQRRRKASEREKLRMRTLADALHTLRNYLPPVYSQRGQPLTKIQTLKYTIKYIGELTDLLNRGREPRAQSA
B8: MTDH (protein, UniProt Q86UE4 1-582, looked up)
Protein LYRIC: MAARSWQDELAQQAEEGSARLREMLSVGLGFLRTELGLDLGLEPKRYPGWVILVGTGALGLLLLFLLGYGWAAACAGARKKRRSPPRKREEAAAVPAAAPDDLALLKNLRSEEQKKKNRKKLSEKPKPNGRTVEVAEGEAVRTPQSVTAKQPPEIDKKNEKSKKNKKKSKSDAKAVQNSSRHDGKEVDEGAWETKISHREKRQQRKRDKVLTDSGSLDSTIPGIENTITVTTEQLTTASFPVGSKKNKGDSHLNVQVSNFKSGKGDSTLQVSSGLNENLTVNGGGWNEKSVKLSSQISAGEEKWNSVSPASAGKRKTEPSAWSQDTGDANTNGKDWGRSWSDRSIFSGIGSTAEPVSQSTTSDYQWDVSRNQPYIDDEWSGLNGLSSADPNSDWNAPAEEWGNWVDEERASLLKSQEPIPDDQKVSDDDKEKGEGALPTGKSKKKKKKKKKQGEDNSTAQDTEELEKEIREDLPVNTSKTRPKQEKAFSLKTISTSDPAEVLVKNSQPIKTLPPATSTEPSVILSKSDSDKSSSQVPPILQETDKSKSNTKQNSVPPSQTKSETSWESPKQIKKKKKARRET
B9: MNAT1 (protein, UniProt P51948 1-309, looked up)
CDK-activating kinase …: MDDQGCPRCKTTKYRNPSLKLMVNVCGHTLCESCVDLLFVRGAGNCPECGTPLRKSNFRVQLFEDPTVDKEVEIRKKVLKIYNKREEDFPSLREYNDFLEEVEEIVFNLTNNVDLDNTKKKMEIYQKENKDVIQKNKLKLTREQEELEEALEVERQENEQRRLFIQKEEQLQQILKRKNKQAFLDELESSDLPVALLLAQHKDRSTQLEMQLEKPKPVKPVTFSTGIKMGQHISLAPIHKLEEALYEYQPLQIETYGPHVPELEMLGRLGYLNHVRAASPQDLAGGYTSSLACHRALQDAFSGLFWQPS
B10: MLLT10 (protein, UniProt P55197 1-1068, looked up)
Protein AF-10: MVSSDRPVSLEDEVSHSMKEMIGGCCVCSDERGWAENPLVYCDGHGCSVAVHQACYGIVQVPTGPWFCRKCESQERAARVRCELCPHKDGALKRTDNGGWAHVVCALYIPEVQFANVSTMEPIVLQSVPHDRYNKTCYICDEQGRESKAATGACMTCNKHGCRQAFHVTCAQFAGLLCEEEGNGADNVQYCGYCKYHFSKLKKSKRGSNRSYDQSLSDSSSHSQDKHHEKEKKKYKEKDKHKQKHKKQPEPSPALVPSLTVTTEKTYTSTSNNSISGSLKRLEDTTARFTNANFQEVSAHTSSGKDVSETRGSEGKGKKSSAHSSGQRGRKPGGGRNPGTTVSAASPFPQGSFSGTPGSVKSSSGSSVQSPQDFLSFTDSDLRNDSYSHSQQSSATKDVHKGESGSQEGGVNSFSTLIGLPSTSAVTSQPKSFENSPGDLGNSSLPTAGYKRAQTSGIEEETVKEKKRKGNKQSKHGPGRPKGNKNQENVSHLSVSSASPTSSVASAAGSITSSSLQKSPTLLRNGSLQSLSVGSSPVGSEISMQYRHDGACPTTTFSELLNAIHNGIYNSNDVAVSFPNVVSGSGSSTPVSSSHLPQQSSGHLQQVGALSPSAVSSAAPAVATTQANTLSGSSLSQAPSHMYGNRSNSSMAALIAQSENNQTDQDLGDNSRNLVGRGSSPRGSLSPRSPVSSLQIRYDQPGNSSLENLPPVAASIEQLLERQWSEGQQFLLEQGTPSDILGMLKSLHQLQVENRRLEEQIKNLTAKKERLQLLNAQLSVPFPTITANPSPSHQIHTFSAQTAPTTDSLNSSKSPHIGNSFLPDNSLPVLNQDLTSSGQSTSSSSALSTPPPAGQSPAQQGSGVSGVQQVNGVTVGALASGMQPVTSTIPAVSAVGGIIGALPGNQLAINGIVGALNGVMQTPVTMSQNPTPLTHTTVPPNATHPMPATLTNSASGLGLLSDQQRQILIHQQQFQQLLNSQQLTPEQHQAFLYQLMQHHHQQHHQPELQQLQIPGPTQIPINNLLAGTQAPPLHTATTNPFLTIHGDNASQKVARLSDKTGPVAQEKS
B11: MUSCLIN (protein, UniProt P61366 28-133, looked up)
Osteocrin: VDVTTTEAFDSGVIDVQSTPTVREEKSATDLTAKLLLLDELVSLENDVIETKKKRSFSGFGSPLDRLSAGSVDHKGKQRKVVDHPKRRFGIPMDRIGRNRLSNSRG
B12: MLXIP (protein, UniProt Q9HAP2 2-919, looked up)
MLX-interacting protein: AADVFMCSPRRPRSRGRQVLLKPQVSEDDDDSDTDEPSPPPASGAATPARAHASAAPPPPRAGPGREEPPRRQQIIHSGHFMVSSPHREHPPKKGYDFDTVNKQTCQTYSFGKTSSCHLSIDASLTKLFECMTLAYSGKLVSPKWKNFKGLKLQWRDKIRLNNAIWRAWYMQYLEKRKNPVCHFVTPLDGSVDVDEHRRPEAITTEGKYWKSRIEIVIREYHKWRTYFKKRLQQHKDEDLSSLVQDDDMLYWHKHGDGWKTPVPMEEDPLLDTDMLMSEFSDTLFSTLSSHQPVAWPNPREIAHLGNADMIQPGLIPLQPNLDFMDTFEPFQDLFSSSRSIFGSMLPASASAPVPDPNNPPAQESILPTTALPTVSLPDSLIAPPTAPSLAHMDEQGCEHTSRTEDPFIQPTDFGPSEPPLSVPQPFLPVFTMPLLSPSPAPPPISPVLPLVPPPATALNPPAPPTFHQPQKFAGVNKAPSVITHTASATLTHDAPATTFSQSQGLVITTHHPAPSAAPCGLALSPVTRPPQPRLTFVHPKPVSLTGGRPKQPHKIVPAPKPEPVSLVLKNARIAPAAFSGQPQAVIMTSGPLKREGMLASTVSQSNVVIAPAAIARAPGVPEFHSSILVTDLGHGTSSPPAPVSRLFPSTAQDPLGKGEQVPLHGGSPQVTVTGPSRDCPNSGQASPCASEQSPSPQSPQNNCSGKSDPKNVAALKNRQMKHISAEQKRRFNIKMCFDMLNSLISNNSKLTSHAITLQKTVEYITKLQQERGQMQEEARRLREEIEELNATIISCQQLLPATGVPVTRRQFDHMKDMFDEYVKTRTLQNWKFWIFSIIIKPLFESFKGMVSTSSLEELHRTALSWLDQHCSLPILRPMVLSTLRQLSTSTSILTDPAQLPEQASKAVTRIGKRLGES
B13: MEF2A (protein, UniProt Q02078 1-507, looked up)
Myocyte-specific enhancer …: MGRKKIQITRIMDERNRQVTFTKRKFGLMKKAYELSVLCDCEIALIIFNSSNKLFQYASTDMDKVLLKYTEYNEPHESRTNSDIVEALNKKEHRGCDSPDPDTSYVLTPHTEEKYKKINEEFDNMMRNHKIAPGLPPQNFSMSVTVPVTSPNALSYTNPGSSLVSPSLAASSTLTDSSMLSPPQTTLHRNVSPGAPQRPPSTGNAGGMLSTTDLTVPNGAGSSPVGNGFVNSRASPNLIGATGANSLGKVMPTKSPPPPGGGNLGMNSRKPDLRVVIPPSSKGMMPPLSEEEELELNTQRISSSQATQPLATPVVSVTTPSLPPQGLVYSAMPTAYNTDYSLTSADLSALQGFNSPGMLSLGQVSAWQQHHLGQAALSSLVAGGQLSQGSNLSINTNQNISIKSEPISPPRDRMTPSGFQQQQQQQQQQQPPPPPQPQPQPPQPQPRQEMGRSPVDSLSSSSSSYDGSDREDPRGDFHSPIVLGRPPNTEDRESPSVKRMRMDAWVT

System: HEK293FT cells transfected with TF library
Assay: Screening of TF condensates based on fluorescent puncta
Format: cell-based
Details: Figure 1B numerical data; TF library screen, one value per transcriptional factor
How it was run: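 HEK293FT, PEI transfection of TF library, 60 h; ±glucose 12 h; 4% PFA fix, 0.05% Triton X-100 permeabilization, 5% BSA block; anti-Flag/anti-GAL4 overnight at 4 °C, Alexa 488 secondary 1 h; high-content imaging, 50 fields/well.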

Molecule	Z score of condensed fraction
B1	1.17
B2	-0.9909
B3	-1.02
B4	-0.1227
B5	0.991
B6	1.7837
B7	0.1411
B8	1.2714
B9	-0.8808
B10	0.7939
B11	0.265
B12	-0.5131
B13	-0.6589
